Data reported in the supplement of paper PMC7125110.
± gives the standard error. This sample holds only a part of the variants without activity.

B1: glmS ribozyme (parent)
chain: AUAAAAGCGCCAGAACUACAGAAAUGUAGUUGACGAGGAGGAGGUUUAUCGAAUUUUCGGCGGAUGCCUCCAAA

Tests used:
Conditions in all cases: with glucosamine-6-phosphate
glucosamine-6-phosphate [1] = variants of: B1; experiment: self-cleavage kobs at 40 uM GlcN6P; higher = faster cleavage; RNA array
In short: (§1)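 Barcoded glmS ribozyme variants on sequenced MiSeq chips were transcribed in situ by E. coli RNA polymerase and tracked through a hybridised Cy3 probe at 37 °C. Glucosamine-6-phosphate (40 μM to 10 mM) in HEPES/KCl/Mg(OAc)2 buffer was flowed in, and tiles were imaged over ~14 h. Signals were normalised to baseline and to non-cleaving reference variants; per-tile medians were fit to one- or two-exponential decays to give kobs. kcat and KM came from weighted Michaelis–Menten fits across concentrations.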

glucosamine-6-phosphate [2] = variants of: B1; experiment: self-cleavage kobs at 160 uM GlcN6P; higher = faster cleavage; RNA array
In short: as §1

glucosamine-6-phosphate [3] = variants of: B1; experiment: self-cleavage kobs at 640 uM GlcN6P; higher = faster cleavage; RNA array
In short: as §1

glucosamine-6-phosphate [4] = variants of: B1; experiment: self-cleavage kobs at 2500 uM GlcN6P; higher = faster cleavage; RNA array
In short: as §1

glucosamine-6-phosphate [5] = variants of: B1; experiment: self-cleavage kobs at 10000 uM GlcN6P; higher = faster cleavage; RNA array
In short: as §1

| Variant | self-cleavage kobs at 40 uM GlcN6P (glucosamine-6-phosphate [1]) [s⁻¹] | self-cleavage kobs at 160 uM GlcN6P (glucosamine-6-phosphate [2]) [s⁻¹] | self-cleavage kobs at 640 uM GlcN6P (glucosamine-6-phosphate [3]) [s⁻¹] | self-cleavage kobs at 2500 uM GlcN6P (glucosamine-6-phosphate [4]) [s⁻¹] | self-cleavage kobs at 10000 uM GlcN6P (glucosamine-6-phosphate [5]) [s⁻¹] |
| --- | --- | --- | --- | --- | --- |
| G7C U30A | < 1e-05 | < 1e-05 | < 1e-05 | < 1e-05 | < 1e-05 |
| A6G U57A | < 1e-05 | < 1e-05 | < 1e-05 | – | – |
| A6G U57G | < 1e-05 | < 1e-05 | < 1e-05 | < 1e-05 | < 1e-05 |
| G7U A14U A48G U56C A64U G66U | < 1e-05 | – | – | – | < 1e-05 |
| G7C A15U G59C | < 1e-05 | < 1e-05 | < 1e-05 | < 1e-05 | < 1e-05 |
| A6U A33U | < 1e-05 | – | < 1e-05 | < 1e-05 | < 1e-05 |
| A6U A33G | < 1e-05 | – | < 1e-05 | – | – |
| G7A C11U U30A | < 1e-05 | – | – | – | – |
| A6U A12C U45A A52C | < 1e-05 | – | – | < 1e-05 | < 1e-05 |
| A6U A15G U31G G41A | < 1e-05 | – | – | – | < 1e-05 |
| G7A A48U U56G | < 1e-05 | < 1e-05 | < 1e-05 | – | < 1e-05 |
| A6U G63U | < 1e-05 | < 1e-05 | < 1e-05 | < 1e-05 | – |
| G7A G9C C16G | < 1e-05 | < 1e-05 | < 1e-05 | – | < 1e-05 |
| G7C G29U G32U A64C | < 1e-05 | – | – | – | – |
| G7U A14G | < 1e-05 | < 1e-05 | < 1e-05 | – | < 1e-05 |
| G7U A14U | < 1e-05 | < 1e-05 | < 1e-05 | – | < 1e-05 |
| A6U C16U U47A G63U | < 1e-05 | – | – | – | < 1e-05 |
| A6U C8G A33U C34G U69G | 8.53e-05 ± 1.8e-05 | – | 0.000181 ± 5.7e-05 | – | 6.82e-05 ± 1.7e-05 |
| A6U C16A C34A G38C | < 1e-05 | – | < 1e-05 | – | < 1e-05 |
| A6U U57G | < 1e-05 | – | – | – | – |
| G7A A14U C58A C68G | 0.000142 ± 4e-05 | – | 0.00047 ± 0.00023 | – | 0.00011 ± 2.5e-05 |
| G7A C8U | < 1e-05 | – | – | – | – |
| G7A C8G | < 1e-05 | < 1e-05 | < 1e-05 | < 1e-05 | < 1e-05 |
| G7A G13A C68U | < 1e-05 | – | – | – | – |
| A6U C11U G13A | < 1e-05 | – | – | – | < 1e-05 |

| Variant | self-cleavage kobs at 40 uM GlcN6P (glucosamine-6-phosphate [1]) [s⁻¹] | self-cleavage kobs at 160 uM GlcN6P (glucosamine-6-phosphate [2]) [s⁻¹] | self-cleavage kobs at 640 uM GlcN6P (glucosamine-6-phosphate [3]) [s⁻¹] | self-cleavage kobs at 2500 uM GlcN6P (glucosamine-6-phosphate [4]) [s⁻¹] | self-cleavage kobs at 10000 uM GlcN6P (glucosamine-6-phosphate [5]) [s⁻¹] |
| --- | --- | --- | --- | --- | --- |
| A6U G43A | < 1e-05 | < 1e-05 | – | – | < 1e-05 |
| G7C G35U U54G | < 1e-05 | – | – | < 1e-05 | < 1e-05 |
| G7C G13U A33G U45G | < 1e-05 | – | – | – | – |
| G7C G51A U56A C67G C68A | 0.000619 ± 0.0002 | – | – | – | 7.59e-05 ± 1.5e-05 |
| G7U C8A | < 1e-05 | < 1e-05 | – | < 1e-05 | – |
| A6U G44A C70U | < 1e-05 | – | – | – | – |
| A6U C10A G38U | < 1e-05 | – | – | – | < 1e-05 |
| G7A G51A C67A | < 1e-05 | – | – | – | < 1e-05 |
| G7A C58U C68G | 0.000285 ± 7.7e-05 | – | – | – | – |
| A6U G35C C61U | < 1e-05 | – | – | – | – |
| G7A G9U A48G | < 1e-05 | – | – | – | – |
| G7A A39C A52U G60A C67U | < 1e-05 | – | – | – | – |
| G7C G40C | < 1e-05 | – | – | < 1e-05 | < 1e-05 |
| G7A G29C U57G C70G | 0.000158 ± 7.6e-05 | – | – | – | 0.000678 ± 0.00017 |
| G7U A15G | < 1e-05 | < 1e-05 | < 1e-05 | < 1e-05 | < 1e-05 |
| G7C G35A | < 1e-05 | – | < 1e-05 | < 1e-05 | < 1e-05 |
| G7A A36C | < 1e-05 | < 1e-05 | – | – | < 1e-05 |
| G7A A36U | < 1e-05 | < 1e-05 | < 1e-05 | < 1e-05 | – |
| G7C G9C U31C G40A | < 1e-05 | – | – | – | < 1e-05 |
| A6U C50G | 4.82e-05 ± 1.8e-05 | 6.77e-05 ± 2.7e-05 | – | 0.000434 ± 0.00021 | 2.57e-05 ± 1.3e-05 |
| G7C A12U G38U G40C U49G U56G | < 1e-05 | – | – | – | – |
| G7A U69G | 0.000261 ± 4.3e-05 | – | 7.58e-05 ± 3.5e-05 | – | 0.000569 ± 0.00011 |
| G7C C11G G51A | < 1e-05 | – | – | – | < 1e-05 |
| G7C C10U A15U U49C | < 1e-05 | – | – | – | < 1e-05 |
